Test [1] has as its target endogenous Aβ(1-42) in human CSF (human). The test is described as follows: IP from CSF of AD patients (n=2), ratio of recovered Aβ42 to Aβ40.
The target is the same in test [2]. The test is described as follows: IP from CSF of MCI patients (n=4), ratio of recovered Aβ42 to Aβ40.
Test [3] has the same target. The experiment in a line: IP from AD patient CSF, urea-PAGE Western blot, share of Aβ42 in recovered Aβ40+42. A general note: In western blotting, separated proteins are transferred to a membrane and probed.
Test [4] addresses endogenous Aβ(1-40) in human CSF (human). The experiment in a line: IP from CSF of AD patients (n=2) with antibody-Sepharose, Aβ40 sandwich ELISA of eluate.
The target of test [5] is endogenous Aβ(1-42) in human CSF (human). The test is described as follows: IP from CSF of AD patients (n=2) with antibody-Sepharose, Aβ42 sandwich ELISA of eluate. On the technique in general: An ELISA detects its analyte on a solid surface through an enzyme-linked reagent.
Chain of endogenous Aβ(1-42) in human CSF (human) (peptide, as listed by the source): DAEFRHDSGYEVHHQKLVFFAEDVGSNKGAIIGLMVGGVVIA
In test [6] the target is endogenous Aβ(1-40) in human CSF (human). The test is described as follows: IP from CSF of MCI patients (n=4) with antibody-Sepharose, Aβ40 sandwich ELISA of eluate.
Chain of endogenous Aβ(1-40) in human CSF (human) (peptide, as listed by the source): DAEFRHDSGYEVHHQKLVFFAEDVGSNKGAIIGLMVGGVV
The target of test [7] is endogenous Aβ(1-42) in human CSF (human). The experiment in a line: IP from CSF of MCI patients (n=4) with antibody-Sepharose, Aβ42 sandwich ELISA of eluate.
A further test has as its target Aβ(1-42) fibrils (human) (UniProt P05067). The experiment in a line: co-sedimentation with Aβ(1-42) fibrils, SDS-PAGE, densitometry of heavy chain in pellet and supernatant.
Test [8] concerns the target endogenous Aβ(1-40) in human CSF (human). The experiment in a line: IP from AD patient CSF with antibody on anti-mouse IgG Dynabeads, 8 M urea-PAGE and Western blot (82E1).
Test [9] has as its target endogenous Aβ(1-42) in human CSF (human). The test is described as above.
The target of another test is Aβ(1-40) monomer (human). The test is described as follows: dot blot, 10 pmol antigen on nitrocellulose, 0.2 µg/ml antibody, densitometry.
Test [10] concerns the target Aβ1-42 monomer (dot blot) (human). The description is as above.

With “mMAb 6E10 (Signet Inc. Cat.# 9320) (antibody)”, the Aβ42/40 in test [1] worked out at 20.6%; in [2] it was 17.4%. Further, the Ratio Aβ42/Aβ40+42 × 100% in [3] was 4.4%. For the same substance, the Aβ(1-40) recovered after immunoprecipitation in test [4] was found to be 5610; in test [6], 8280. The Aβ(1-42) recovered after immunoprecipitation in [5] turned out to be 1450; in [7] it was 2040. Further, the Fibril bound Ab fraction with Aβ(1-42) fibrils (human) came out at 98%. Besides, the Aβ40 urea-PAGE after immunoprecipitation in test [8] turned out to be 4390 pg/mL. The substance further returned an Aβ42 urea-PAGE after immunoprecipitation in test [9] of 202 pg/mL.
For the substance “mMAb 4G8 (Signet Inc. Cat# 9220) (antibody)”, the Reflective Density (RD) [10 pmol] in the test with Aβ(1-40) monomer (human) came out at 0.7 RD; in test [10], 3.1 RD.
